The record followed here is US20240309076A1.

This assay has as its target recombinant full-length human Tau (human) (UniProt P10636). The experiment in a line: indirect ELISA, Tau coated on the plate. For orientation: In an ELISA, binding on a coated surface is turned into a signal by an enzyme label.

B1: NI-502.4P3 (antibody, V domains shown)
VH: EVQLVQSGAEVKKPGESLKISCKVSGYDFSKYWIGWVRQMPGKGLEWMGLIYPGDSDTRYSPSLEGQVSISADKSISAAYLQFSSLKASDSAMYYCVRKGYSAYLGGWFDPWGQGTLVTVSS
VL: DIQLTQSPDSLAASLGERVTINCRSSQNIFYNSNNKNFLAWYQQKAGQSPKLLIYWASTRESGVPDRFSGSGSGTDFTLTISGLQAGDVAVYFCQQYFTDAPTFGGGTKVEIK
The term EC50 denotes the concentration needed to bring the measured effect to its halfway point. For B1, the EC50 is 15 nM.
